Results: the supplement of paper PMC9170038

Test system: MS2 coat protein
Experiment: apparent KD of MS2 coat protein; designed switch direction (-1 OFF switch, 1 ON switch): -1; higher = weaker reporter binding
How it was run: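 SNAP-549-labelled MS2 coat protein was titrated, doubling from 0.7 or 1.5 nM to 3 µM, over designed RNA switches transcribed on Illumina chips by stalled E. coli RNA polymerase. Runs were done without input, with 200 uM small-molecule ligand, or with an oligonucleotide input. Apparent KD is the per-design median over clusters of curve-fitted normalised fluorescence.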

[1] = Eterna round: R95, input ligand: FMN 200 uM
[2] = Eterna round: R95, input ligand: microRNA oligo, concentration not stated
[3] = Eterna round: R95, input ligand: none
[4] = input ligand: microRNA oligo, concentration not stated

Sequence | apparent KD of MS2 coat protein (input ligand: FMN 200 uM) | apparent KD of MS2 coat protein (input ligand: none) | apparent KD of MS2 coat protein [1] | apparent KD of MS2 coat protein [2] | apparent KD of MS2 coat protein [3] | apparent KD of MS2 coat protein [4]
ACUGGUCGAGGAUAUACGAUCGUGCUUCGGCACGUAAGAUCACAUGAGGAUCACCCAUGUAGAAGGCGACCAGU [Mod 4 - Jieux - Exclusion 2] (Eterna round: R97, puzzle: Exclusion 2) | 0.246 µM | 0.0353 µM |  |  |  | 
ACAUUGUAUGUGAGGAUAUCGAUGGGAUGGGUUGUCGAGAAGGCACAUGAGGAUCACCCAUGUAAGGGACAGCA [JR_BMEx4_Sub029] (Eterna round: R97, puzzle: Brourd's mod of Exclusion 4) | 0.295 µM | 0.0831 µM |  |  |  | 
AAGUACCGUCACGAUAGUGAUGGUACAACAAGCAGUGACACAUGAGGAUCACCCAUGUCCUCAAUUGCUCGUCUUAU [Sensor 3 - 76] (puzzle: Sensor v3, turn-off variant 2) |  |  | 0.179 µM | 0.383 µM | 0.156 µM | 
UGUGUCUCAGGAGGAUAUCUCUCGGUUGCCGUUAGAGAAGGCUUGAAACAUGAGGAUCACCCAUGUAAAUGGCCCGUCCUCCAA [Lalecetege] (Eterna round: R96, puzzle: Exclusion NG 1) | 0.0122 µM | 0.0141 µM |  |  |  | 0.0113 µM
AUUGAUAGCACAGGAUAUUGAGAUUUGAAUUGACAAGAAGGGUGUACAUGAGGAUCACCCAUGUAAUGGUUGCCUCGUUGAUUA [JR_ExcNG1_Sub004] (Eterna round: R96, puzzle: Exclusion NG 1) | 1.07 µM | 0.148 µM |  |  |  | 0.125 µM
UGAAGUAGAGGAUAUACGUGGAAAUAGAUUCAUGUAAAACUACAUGAGGAUCACCCAUGUAGAAGGCUAUAGAU [JR_Ex2_Sub072] (Eterna round: R97, puzzle: Exclusion 2) | 0.0284 µM | 0.049 µM |  |  |  | 
CUUGAGUGACAAGCUUUUUGCUCGUCUGUUAUUGAUGCUACAUGAGGAUCACCCAUGUUUAAGAUGUGUGAGGAUGG [JR_SV3TOV2_Sub054] (puzzle: Sensor v3, turn-off variant 2) |  |  | 0.0367 µM | 0.0489 µM | 0.0356 µM | 
UGUUUACAUGAGGAUCACCCAUGUCAGGAUAUGAUAUAUAUAUGGAAACAUAUAUAUAUCAGAAGGGACUAGUG [Jieuxxlusion 1 - Jieux - Exclusion 1] (Eterna round: R97, puzzle: Exclusion 1) | 0.156 µM | 0.0877 µM |  |  |  | 
CCCUGACAUGAGGAUCACCCAUGUUAGGAUAUAACAUUUGACGCGACAGUGUGGAGUGUUAGAAGGGAUAUGGG [-28.4, -26.7 kcal, A 28%] (Eterna round: R97, puzzle: Exclusion 1) | 0.0299 µM | 0.0208 µM |  |  |  | 
AGUACUUUCACGAAAGUGAAAGUACAAAUGAGCUUUUGAACAUGAGGAUCACCCAUGUCCUCAUAAGCUCGUCUUAA [Mat - Sensor v2 - var 2 - Mod - D175] (Eterna round: R96, puzzle: Sensor v2, turn-off variant 2) | 0.0283 µM | 0.0307 µM |  |  |  | 0.458 µM
AGCUGUGGCCGAGGAUAUCUAACAAUCCAAACCGAAAUAUAAUCGGACAUGAGGAUCACCCAUGUAGAGAAGGCGGUCUCAGCA [Eli eng2 - 075] (Eterna round: R96, puzzle: Exclusion NG 2) |  |  |  |  |  | 0.0327 µM
GAUUGACAUGAGGAUCACCCAUGUGAGGAUAUCGGCUGGACCGUGUUGGCUUGCCUCUCGAGAAGGCGCAUAGG [Exclusion 1 V52] (puzzle: Exclusion 1) |  |  | 0.0388 µM | 0.035 µM | 0.0438 µM | 
GGUCGGCGAGGAUAUACAUGAGGAUCACCCAUGUGAUAGAUUGCACGCGUACGUGUAUGUAGAAGGCGCUGACG [JL-ex3-3.30 salish99 mod] (puzzle: Exclusion 3) |  |  | 0.811 µM | 0.0296 µM | 0.0328 µM | 
GCUUCCCAUGUGAGGAUAUGUAGGGUUAACCCGAGGCAGAAGGCACAUGAGGAUCACCCAUGUUAAAACUUCUA [Xecera] (puzzle: Brourd's mod of Exclusion 4) |  |  |  | 0.0308 µM |  | 
GCUGACAAGCUGGAGACAGCAGAGACAUGAGGAUCACCCAUGUAGGAUAUCGAUGCGAAAAGCAUCGAGAAGGGCAUAGUCAGC [exng3 v2 a] (Eterna round: R96, puzzle: Exclusion NG 3) | 0.0131 µM | 0.0172 µM |  |  |  | 0.00971 µM
AUUGUUUAUGUAGGAUAUGCCUGGCGUGCCUUUGCAGAAGGACAUGAGGAUCACCCAUGUAUUGCGGUCUGCGUUCAGAUCGCC [salish99_ExNG1_r4_035] (Eterna round: R96, puzzle: Exclusion NG 1) | 0.0276 µM | 0.0241 µM |  |  |  | 0.0167 µM

Sequence | apparent KD of MS2 coat protein (input ligand: FMN 200 uM) | apparent KD of MS2 coat protein (input ligand: none) | apparent KD of MS2 coat protein [1] | apparent KD of MS2 coat protein [2] | apparent KD of MS2 coat protein [3] | apparent KD of MS2 coat protein [4]
AGGGAACGAGGAUAUCGAUGGUGGAACAUGAGGAUCACCCAUGUAUGAGAUAGAGUAGGGCGAGAAGGCGUUAAGA [JR_E5_Sub051] (puzzle: Exclusion 5) |  |  | 0.0476 µM | 0.0556 µM | 0.0849 µM | 
UUUUCUUUUGUGAGGAUAUACUUGUUUUUUUUUUUGUAGAAGGCACAUGAGGAUCACCCAUGUUUUCUUUCCUG [JR_BME4_Sub025] (puzzle: Brourd's mod of Exclusion 4) |  |  |  | 0.0201 µM |  | 
AGUACUCACACGAAAGUGUUAGUACAAUAAGCUUGUGAAACAUGAGGAUCACCCAUGUCCUCAUAAGCUCGUCUUAU [salish99_TOv2_r3_018] (puzzle: Sensor v3, turn-off variant 2) |  |  | 0.0176 µM | 1.38 µM | 0.0171 µM | 
UUUAGUUCAGGAUAUGUAGAAUUAAACAUGAGGAUCACCCAUGUAGUUCCUGAUCCUGCUACAGAAGGGAACAUUU [Mat - Exclusion 5 - Eli Mod - D13] (Eterna round: R97, puzzle: Exclusion 5) | 0.0248 µM | 0.0172 µM |  |  |  | 
AGUACUAACACGAAAGUGUUAGUUCAAUAAGCUUGUGAAACAUGAGGAUCACCCAUGUCCUCAUAAGCUCGUCUUAU [salish99_TOv2_r3_040] (puzzle: Sensor v3, turn-off variant 2) |  |  | 0.0158 µM | 0.856 µM | 0.015 µM | 
CUUAUGUGAGGAUAUGCCUGGCCGUGAGGCCAAAUUUAUAAGCAGAAGGCACAUGAGGAUCACCCAUGUGCGGG [jl-ex4-4.69 ViennaUCT mod] (Eterna round: R97, puzzle: Exclusion 4) | 0.115 µM | 0.317 µM |  |  |  | 
AUUGUAUGAGGAUAUACACCAGUGGGAGUGUCUUGCGUGAUACAUGAGGAUCACCCAUGUAGAAGGCGUACUAC [Eternabot (L2) Solution 90] (Eterna round: R97, puzzle: Exclusion 2) | 0.0369 µM | 0.016 µM |  |  |  | 
CUUCACCCACCAGAGCUCACCCACAUACCUACUCAGGUGACAUGAGGAUCACCCAUGUUUUUUGCCCGUCUUAUCUU [Vexebedi] (Eterna round: R96, puzzle: Sensor v3, turn-off variant 2) | 0.0344 µM | 0.0375 µM |  |  |  | 0.174 µM
ACUUUUAGUGGUCAAACUCACAUGAGGAUCACCCAUGUUUACAGGCUUAGGUGCUUGUCUUAUACUAAGGUUUACCG [Eternabot (L1) Solution 44] (Eterna round: R97, puzzle: Sensor, turn-off variant 1) | 0.0969 µM | 0.122 µM |  |  |  | 
CGAGCUGCUGUGAGGAUAUACCUGUGGGUGCGUGGGUAGAAGGCACAUGAGGAUCACCCAUGUCCUGCAGCUCG [salish99_bmx4_r4_105] (Eterna round: R97, puzzle: Brourd's mod of Exclusion 4) | 0.595 µM | 1.06 µM |  |  |  | 
CGUGACUCAGGAUAUCUAUAGUAUCACAUGAGGAUCACCCAUGUCCAGCGAAAGCUGGAGGGAGAAGGGAGUCACG [Fiskers Ex 5 - 42] (Eterna round: R96, puzzle: Exclusion 5) | 0.0741 µM | 0.188 µM |  |  |  | 0.23 µM
GGUACUCAAAGAGUACCAAUACGAACAUGAGGAUCACCCAUGUAGGAUAUGCUACUCAAAGAGUAGCAGAAGGAUAUGAUCGAU [Far Half Aptamer v14] (Eterna round: R96, puzzle: Exclusion NG 3) | 0.0456 µM | 0.0406 µM |  |  |  | 0.0279 µM
GCAGAAAGUGUAGGAUAUAUAAAUUAGCGGAAACGCAAUACAUGAGGAUCACCCAUGUUUCCUCAAUAGAAGGGCAAAAGCUGC [EXNG2 V2 e] (Eterna round: R96, puzzle: Exclusion NG 2) | 0.088 µM | 0.0798 µM |  |  |  | 0.0379 µM
AGUUCACAUGAGGAUCACCCAUGUGAGGAUAUGGAUUCGCUGGCCGUAGCCAGUGGAUCCAGAAGGCGCAUGAU [JL-ex1-4.14] (Eterna round: R97, puzzle: Exclusion 1) | 0.0369 µM | 0.032 µM |  |  |  | 
CUGGUCCGAGGAUAUAUUAAGUGAAACAUGAGGAUCACCCAUGUUAUUUGAUGGAAGAAAAUAGAAGGCGGACUAG [Mat - Exclusion 5 - JL mod - D59] (puzzle: Exclusion 5) |  |  | 0.0299 µM | 0.0869 µM | 0.0625 µM | 
CCGGAAGUACAGGAUAUCGUAACGGAUACGUUACGAGAAGGGUAUACAUGAGGAUCACCCAUGUGUCCUACCGG [Mat - Exclusion 6 - Eli Mod - D95] (puzzle: Exclusion 6) |  |  | 0.0278 µM | 0.026 µM | 0.0271 µM | 
